The nature of the data set: yeast display, Sf9 membrane polyspecificity reagent, FACS + sequencing; frameworks hold sequencing errors. The method, boiled down: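 Sorting gates, low and high (top ~1%), were placed on anti-HA fluorescence to track expression and on streptavidin fluorescence to track reagent binding. A clone's polyreactivity label is taken from the gate it came out of. The reagent was 10% biotinylated, detergent-solubilized Sf9 membrane, applied for 1 hour at 4 °C to galactose-induced yeast display cells.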
Turning to “QVQLVDSGGGLVQAGGSLRLSCAASGRTFGVNTMGWYRQAPGKERELVAAISWSGGRTYYADSVKGRFTISRDNAKNTVYLQMNSLKPEDTAVYYCAASWYSRASLYDYWGQGTQVTVSS”, the “polyreactivity (PSR sort gate)” value is on record as “high polyreactivity”.
Next, “QVQLVESRVGLVKAGGSLRLSCAASGITLYWYAMGWYRQAPGKESELVAAISRRGGTTYYSDSVKGRFTISRDNAKNTVYLQMNILKPEDTAVYYCAKAPDTQTSWSRQEGNYWGQGSQVTVSS”: “low polyreactivity”; “QVQLVESGGGLVQAGGSLRLSCAASGSTFYQNAMGWYRQAPGKERELVAAISIGGGRTYYADSVKGRFTISRDNAKNTVYLQMNSLKPEDTAVYYCAAGPTGRYRREFRFDYLGQGTQVTVSS”: “low polyreactivity”.
Next, “QVQLVESGGGLVQAGGTLRLSCAASGRTFDTNAMAWYRQAPGKERELVASITWVGGSTYYADSVKGRFTISRDNAKNTVYLQMNSLKPEDTAVYYCNRDRVSGGKYNYWGQGSQVTVSS”: “low polyreactivity”.
As for “QVHLVESGGGLVQAGGSLRLSCAASGRTIGVNAMGWYRQPHGTERELVAAITKDSGATNYADSVKGLFTISRDNAKITVYFQMNSLKADDTAVYYCAARVWVRGYYWGQGTQVTVSS”, the “polyreactivity (PSR sort gate)” value was “low polyreactivity”.
To “QVQLVESGGGLVQAGGSLRLSCAASGRTYYYYAMGWYRQAPGTQRELVASIRYSTGSTYYADSVKARFTISRDNAKNTVYLQKNSLKPVDTAVYYCAGLRYARASRYDYWGLGTQVTVSS” belongs “high polyreactivity”; to “QVQLVESGGGLVQAGGSLRLSCAASGSIFYTNAMGWYRQAPGKERELVASITGGGSTKYADSVKGRFTISRDNAKNTVYLQMNSLKPEDTAVYYCAKRRYWPLDWGQGTQVTVSS”, “high polyreactivity”; to “QVQLVESGGGLVQAGGSLRLSCASSGITFTFYVMGWYRQAPGKERELVAAISSGGGRTYYADSVKGRFTISRDNAKNTVYLQMNSLKPEDTAVYYCNAALYHDSEYNYWGQGTQVSVSS”, “high polyreactivity”.
To “QVQLVESGGGLVQAGGSLRLSCAASGTTFGYNAMGWYRQAPGKERELVAAITSGGSTNYADSVKGRFTISRDNAKNTVYLQMNSLKPEDTAVYYCDKRGYYHYYWGQGTQVTVSS” belongs “high polyreactivity”; to “QVQLVESGGGLVQAGGSLRLSCAASGRTFWRYAMGWDRQAPGKERELVAGITNSGGNTYYADSVKGRFTISRDNAKNTVYLQMNSLKPEDTAVYYCAARSGRFKYSSWSRGPTYDYWGQGTQVTVSS”, “low polyreactivity”; to “QVQLVESGGGLVQAGGSLRLSCAASGITFGSNAMGWYRQAPGKERELVAAISRSGGRTYYADSVKGRFTISRDNAKNTVSLQMNSLKPEDTAVYDCATDSYTTGEYWGQGTQVTVSS”, “high polyreactivity”.
To “QVQLVESGGGLVQAGGSLRLSCAASGSIFRGYAMGWYRQAPGTERELVAAITSSAGSTYYADSVKGRFTISRDNAKNTVYLQMNSLKPEDSAVYYCNKYPRASRRGFDYWGQGTQVTVSS” belongs “high polyreactivity”; to “QVQLVESGGGLVQAGGSLRLSCAASGSTFDSNVMGCYRQAPGKERELVAVINGSGSNTYYADSVKGRFTISRDNAKNTVYLQMNSLKPEDTAVYYCAARVYVSRSKRLNYWGQGTQVTVSS”, “high polyreactivity”.
Turning to “QVQLVESGGGLVQAGGSLRLSCAASGFTFARYAMGWYRQAPGKERELVAAIDRSGGSTYYADSVKGRFTISRDNAKNTVFLQMNSLKPEDTAVYYCNAVSSFTSPRYDYWGQGTQVTVSS”, the “polyreactivity (PSR sort gate)” value is listed as “high polyreactivity”.
Next, “QVQLVESGGGLVQAGGSLRLSCAASGYTFDAYSMGWYRQAPGKERELVAAITTNGGSTYYADSVKGRFTISRDNAKNTVYLQMNSLKPEDTAVYYCNAEYSYEGRYPYDYWGQGTQVTVSS”: “low polyreactivity”; “QVQLVESGGGLVQAGGSLRLSCAASGSTFRRNDMGWYRQAPGKERELVAAITSGGITNYADSVKGRFTISRDNAKNTVYLQMNSLKPEDTAVYYCNKDSDLHHYHTEFDYWGQGTQVTVSS”: “low polyreactivity”; “QVQLVESGGGLVQAGGSLRLSCAASGISYRWYAMGWYRQAPGKERELVAAISSGGSTTYADSVKGRFTISRDNAKNTVYLQMNSLKPEDTAVYYCAARYQWYSADYDYWGQGTQVTVSS”: “high polyreactivity”.
In the case of “QVQLQESGGGLVQAGGSLRLSCAASGTIFRISDMGSYRQAPGKEREFVAAITYGANTYYADSGKGRFTISRDNAKNTVYLQMNSLIPEDTAVYYCAVPPVKETILDYWGQGTQVTVSC”, the “polyreactivity (PSR sort gate)” value is given as “low polyreactivity”.
In the case of “QVQLVESGGGLVQAGGSLRLSCAASGSTFYVNAMGWYRQAPGKERELVAVISTGGSTYYADSVKGRFTISRDNAKNTVYLQMNSLKPEDTAVYYCAKRDLPDRSGTPNVIPFDYWGQGSQVTVSS”, the “polyreactivity (PSR sort gate)” value was “low polyreactivity”.
Next, “QVQLVESGGGLVQAGGSLRLSCAASGLIFKRYAMGWYRQAPGKERELVAAISYSGGSTYYADSVKGRFTISRDNAKNTVYLQMNSLKPEDTAVYYCATVYYHRFDYWGQGTQVTVSS”: “high polyreactivity”; “QFQRVESGGGLVQAGGSLRLSCAASGRILSYKVMGWYRQAPGKEREFVASIRRTGVRTYYADSVKGRFTISRDNAKNTVYLQINSLKPEDTGVYYCNAANFHFWDYYYWGQGTQVTVSS”: “low polyreactivity”.
To “QVQLVESGGGLVQAGGSLRLSCAASGITFGKNALGWYRQAPGKERELVATIRRSGGSTYADSVKGRFTISRDNAKNTVYLQMNSLKPEDTAVYYCNARSWNTYNYWGQGTQVTVSS” belongs “high polyreactivity”; to “QVQLVESGGGIVQAGGSLRLSCAASGIIFKAYAMGWYRKAPGKERELVAAITTGSTTYADSVKGRFTISRDNAKNTVYLQMNSLKPEDTAVYYCNARFDWGWPGYEYDYCGQGTQVTVSS”, “low polyreactivity”.
Next, “QVQLVESGGGLVQAGGRLSLSCAASGSTFSPYAMGWYRQAPGKEREFVADISWPGGTTYYADSVKGRFTISRDNAKNTVYLQMNSLKPEDTAVYYCAVTYWDYTFQITYEYWGQGTQVTVSS”: “low polyreactivity”; “QVQLVESGGGLVQAGGSLRLSCAASGSTLSKYAMGWYRQAPGKERELVAAISQRGGSTYYADSVKGRFTISRDNAKNTVYLQMNSLKPEDTAVYYCNALQRRYGYWGQGTQVTVSS”: “high polyreactivity”; “QVQLVESGGGLVQAGGSLRLSCAASGSIFSRNDMGWYRLAPGKERELVAAITSDDTSTYYADSVNGRFTISRDNAKNTVYLQMNSLKPEDTAVYYCAADYGNPFDYWGQGTQVTVSS”: “low polyreactivity”.
In the case of “QVQLVESGGGLVQAGGSLRLSCAASGRIFDIYAMGWYRQAPGKERELVAAITNSGVSTYYADSVKGRFTISRDNAKNTVYLQMNSLKPEDTAVYYCNAGDFERAVVVFIQHGGYYWGQGTQVTVSS”, the “polyreactivity (PSR sort gate)” value is recorded as “low polyreactivity”.
Next, “QVHLVESGGGLVQAGGSLRLSCAASGSIFYYNAMGSYRHAPGKERELVAAINWSGDRTYYADSVKGRFTISRDNAKNTVYLQMNSLKPEYTAVYYCAATAWPGRYWRQEVDYWGQGTQVTVSS”: “high polyreactivity”; “QVQLVESGGGLVQAAGSLLLSCAASGSTFYYYAMGWYRQAPRKDRELVAAISRGGGSTYYADSVKGRFTISRDNAKTTVYLQMNSLKPQDTAVYYCYVSRFDSWGQGTKVTVSS”: “high polyreactivity”.
As to “QVQLVESGGGLVQAGGSLRLSCAASGFTFRRYAMGWYRQAPGKERELVAAISASGGNTYYADSVKGRFTISRDNAKNTVYLQMNSLKPEDTAVYYCATDWTVRYDYWGQGTQVTVSS”, the “polyreactivity (PSR sort gate)” value was “high polyreactivity”.
Next, “QVQLVESGGGLVQAGGSLRLSCAASGSIFFSNVMGWYRQAPGKERELVAAITGRTGSTYYADSVKGRFTISRDNAKNTVYLQMNSLKPEDTAVYYCFSYWPRYWQSGNDYWGQGTQVTVSS”: “high polyreactivity”; “QVQLVESGGGLVQAGGSLRLSCAASGSIFDTYSMGWYIQAPGKERELVAAISSGGRTYYADSVKGRFTISRDNAKNTVYLQMNSLKPEDTAVYYCNARYHARYGGDYWGQGTQVTVSS”: “high polyreactivity”.
To “QVQLVESGGGLVQAGGSLRLSCAASGGIFTLYVRGWYRQAPGKERELVAAISRTGGSTYYADSVKGRFTISRDNAKNTVYLQMNSLKPEDTAVYFCAALYRGGTRYGGYDYWGQGTQVTVSS” belongs “low polyreactivity”; to “QVQIVESGGGLVQAGGSLPLSCADYGLIFPDYAMGCYRQAPGKEREFVASIWRGGTTYYADSVKGRFTISRDNAKNTFYFKINSLKPEDTAVYYCASRYFHRGLVFPFTKYDYWGLGTQVTVSS”, “high polyreactivity”; to “QVQLVESGGGLVQAGGSLRLSCAASGRTFGANAMGWYRQAPGKERELVAAISSSDDSTYYADSVKGRFTISRDNAKNTVYLQMNSLKPEDTAVYYCAAEDVYPQLDYWGQGTQVTVSS”, “low polyreactivity”.
Next, “QVQLVESGGGLVQAGGSLRLSCAASGRIFSVNAMGWYRQAPGKERELVAAITSGGRTNYADSVKGRFTISRDNAKNTFYLQMNSLKPEDTAVYYCAAPYLKGGEDDYWGQGTQVTVSS”: “high polyreactivity”.
In the case of “QVQLVESVGGLVQAGGSLRLSCAASGRTLSYYAMGRYRQAPGKVRELVAAISRRGGSTYYADSVKGRFTISRDKAKNTVYLQMNCLQSKDTAFYYCAATVGNAADYDYGYWGQGTQVTVSS”, the “polyreactivity (PSR sort gate)” value is on record as “high polyreactivity”.
Next, “QVQLVESGGGLVQAGGSLRLICAASGRIFNVYAMGWYRQAPGKETELVASITSAGSTYYADSVKGRFTISRDNAKNTVYLQMNSLKPEDTAVYYCNAESYSTWSFGHRYEYDYWGQGTQVTVSS”: “low polyreactivity”; “QVQLVESGGGLVHAGGSLRLSCAASGRTFNYYAMGWYRQAPGKERELVAAISKSTGNTYYADSVKGRFTISRDNAKNTVYLQMNSLKPEDTAVYYCAAKKRGSHVYQYDYCGQGTQVTVSS”: “low polyreactivity”; “QVQLVESGGGIVQAGGSLRLSCASSGSIFYWYAMGWYRQAPGKERELVAAISRSGGSTYYADSVKGRFTISRDNAKNTVYLQMNSLKPEDTAVYYCATELSYRHGYWGQGTQVTVSS”: “high polyreactivity”.
As for “QVQLVESGGGLVQAGGSLRLSSAASGSTFWYYAMGWYRQAPGKERELVAGITQSGGSTYYADSVKGRFTISRDNAKNTVYLQMNSLKPEDTAVYYCAKDGRVSGDFDYWGQGTQVTVSS”, the “polyreactivity (PSR sort gate)” value was “low polyreactivity”.
